Data: patent publication US20210252161A1 (Bayer, published 2021)

Target: T1, TPP-2614, TweakR-ECD-34-68-hIgGFc-His-D47A (human)
T1 construct: alanine-scan mutein; used as HEK293 supernatant
Assay: ELISA, IgG coated at 1 µg/ml, 8-fold diluted HEK293 supernatant with the TWEAKR(34-68)-Fc mutein, anti-HIS-HRP, Amplex Red
Description: These TWEAKR(34-68) Fc muteins were expressed in HEK293 cells. To obtain dose-reaction data, IgGs were coated at a concentration of 1 μg/ml onto a 384-well Maxisorp ELISA plate, and a serial 2-fold dilution of the supernatant comprising the TWEAKR mutein was used as soluble binding partner. Detection was carried out using anti-HIS-HRP and Amplex Red.

B1: TPP-2090 (antibody, human IgG1, kappa, V domains shown)
VH: EVQLLESGGGLVQPGGSLRLSCAASGFTFSPYPMIWVRQAPGKGLEWVSYISPSGGSTHYADSVKGRFTISRDNSKNTLYLQMNSLRAEDTAVYYCARGGDTYFDYFDYWGQGTLVTVSS
VL: DIQMTQSPSSLSASVGDRVTITCRASQSISGYLNWYQQKPGKAPKLLIYQASSLQSGVPSRFSGSGSGTDFTLTISSLQPEDFATYYCQQSYTSPFITFGQGTKVEIKR
notes: human IgG1, anti-TWEAKR; biotinylated where used as soluble partner in the ELISAs
- binding result: no binding (tested: 8-fold diluted supernatant)
